The values that follow come from article PMC12251660, “The Structural Deciphering of the α3 Helix Within ZmHsfA2’S DNA-Binding Domain for the Recognition of Heat Shock Elements in Maize”.

Changes are numbered by the printed parent chain.

The chains are these.
B1: ZmPAH1-HSE2 (dsDNA)
DNA 1: CAGCGTCACATGACGGGAATTTTCACGTCTTTTCAGCCCT
DNA 2: AGGGCTGAAAAGACGTGAAAATTCCCGTCATGTGACGCTG
B2: ZmPAH1-HSE1-HSE2L16 (dsDNA)
DNA 1: CAGCGTCACATGACGGGAATTTTCGTTCGAACGCATTCTG
DNA 2: CAGAATGCGTTCGAACGAAAATTCCCGTCATGTGACGCTG
B3: ZmPAH1-HSE1-HSE2M2 (dsDNA)
DNA 1: TCTTCGAATTGCATAGGAATTTTCGTTCGAACGCATTCTG
DNA 2: CAGAATGCGTTCGAACGAAAATTCCTATGCAATTCGAAGA
B4: ZmPAH1-HSE1 (dsDNA)
DNA 1: B3 DNA 1 with T20A, T21C
DNA 2: B3 DNA 2 with A20G, A21T
B5: ZmPAH1-HSE1-HSE2R16 (dsDNA)
DNA 1: TCTTCGAATTGCATAGGAAACTTCACGTCTTTTCAGCCCT
DNA 2: AGGGCTGAAAAGACGTGAAGTTTCCTATGCAATTCGAAGA

This data set deals with ZmHsf17 (Zea mays, UniProt A0A5J6CYG6 1-373). In words: EMSA; EMSA/Gel-Shift buffer (Beyotime GS009; composition, salt and pH not stated), 10 uL, 25 C 30 min; 6% native PAGE in 0.5x TBE at 4 C. The note with it: protein: recombinant; tags: 6xHis (stated C-terminal; pET-30a); chain copies: 3; label: biotin; blunt. A general note: In EMSA bound probe runs differently from free probe, usually more slowly.
Sequence of ZmHsf17 (A0A5J6CYG6 entry or part of it): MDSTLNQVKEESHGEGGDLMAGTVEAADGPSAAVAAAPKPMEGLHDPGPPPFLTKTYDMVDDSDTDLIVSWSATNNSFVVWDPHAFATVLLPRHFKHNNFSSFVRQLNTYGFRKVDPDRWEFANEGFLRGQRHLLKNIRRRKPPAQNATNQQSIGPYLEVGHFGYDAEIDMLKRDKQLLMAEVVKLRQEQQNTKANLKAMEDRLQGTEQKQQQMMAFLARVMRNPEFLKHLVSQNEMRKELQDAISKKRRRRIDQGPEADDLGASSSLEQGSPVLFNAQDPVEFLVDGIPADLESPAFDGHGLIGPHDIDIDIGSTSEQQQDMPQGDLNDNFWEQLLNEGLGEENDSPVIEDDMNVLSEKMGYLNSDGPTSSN
As to B1, the binding result is on record as “binds”.

For the molecule B2, the binding result is given as “binds”.

Take B3: the binding result is given as “no binding”.

As to B4, the binding result is listed as “no binding”.

As for B5, the binding result is listed as “binds”.
